Substitutions are numbered along the chain they refer to. Numbers in names are those of the source.
Columns and labels:
[1] = molecular target: T1, soluble region of S. cerevisiae Msp1 (Δ1-32), wild type (S. cerevisiae), P28737; assay: SEC + SEC-MALS; conditions: remark: other sources report otherwise
T1 chain: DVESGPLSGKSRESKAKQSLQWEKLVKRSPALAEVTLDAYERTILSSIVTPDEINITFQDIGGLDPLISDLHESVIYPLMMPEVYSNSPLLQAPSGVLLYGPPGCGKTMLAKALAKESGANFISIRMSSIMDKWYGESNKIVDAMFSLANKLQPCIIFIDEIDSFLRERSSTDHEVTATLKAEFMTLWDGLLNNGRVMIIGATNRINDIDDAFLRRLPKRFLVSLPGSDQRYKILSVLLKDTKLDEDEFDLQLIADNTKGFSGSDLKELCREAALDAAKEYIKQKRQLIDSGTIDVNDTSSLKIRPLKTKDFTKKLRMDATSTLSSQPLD

[2] = molecular target: T1, soluble region of S. cerevisiae Msp1 …; assay: SEC + SEC-MALS; conditions: remark: other sources report otherwise
SEC = molecular target: the molecule itself; assay: SEC
SEC + SEC-MALS = molecular target: the molecule itself; assay: SEC + SEC-MALS

B1: soluble region of S. cerevisiae Msp1 (Δ1-32), wild type, P28737 33-362 (domain or fragment)
chain: T1 chain
stoichiometry N [1]: 2 | stoichiometry N [2]: 6

B2: soluble (Δ1-32) S. cerevisiae Msp1 E193Q W166A/Y167A (domain or fragment, UniProt P28737 33-362, looked up)
chain: T1 chain with W134A, Y135A, E161Q
stoichiometry N (SEC): 6

B3: soluble (Δ1-32) S. cerevisiae Msp1 E193Q H206A/E207A (domain or fragment, UniProt P28737 33-362, looked up)
chain: T1 chain with E161Q, H174A, E175A
stoichiometry N (SEC): 6

B4: soluble (Δ1-32) S. cerevisiae Msp1 E193Q (domain or fragment, UniProt P28737 33-362, looked up)
chain: T1 chain with E161Q
stoichiometry N (SEC + SEC-MALS): 6
